From article PMC9800282

Target: vitronectin (VTN) (UniProt P04004)
Test: SPR; Biacore T200; LNA043 (~3,000 RU), FN1 or VTN (~500 RU) amine-coupled to CM5; integrins as analytes 0.6–10 μM, single-cycle kinetics, 37 °C, 1× HBS-N, 0.005% Tween 20, 1 mM MgCl2, 1 mM CaCl2, 2 mM MnCl2; 1:1 binding fit

Sequence of vitronectin (VTN) (P04004 20-478): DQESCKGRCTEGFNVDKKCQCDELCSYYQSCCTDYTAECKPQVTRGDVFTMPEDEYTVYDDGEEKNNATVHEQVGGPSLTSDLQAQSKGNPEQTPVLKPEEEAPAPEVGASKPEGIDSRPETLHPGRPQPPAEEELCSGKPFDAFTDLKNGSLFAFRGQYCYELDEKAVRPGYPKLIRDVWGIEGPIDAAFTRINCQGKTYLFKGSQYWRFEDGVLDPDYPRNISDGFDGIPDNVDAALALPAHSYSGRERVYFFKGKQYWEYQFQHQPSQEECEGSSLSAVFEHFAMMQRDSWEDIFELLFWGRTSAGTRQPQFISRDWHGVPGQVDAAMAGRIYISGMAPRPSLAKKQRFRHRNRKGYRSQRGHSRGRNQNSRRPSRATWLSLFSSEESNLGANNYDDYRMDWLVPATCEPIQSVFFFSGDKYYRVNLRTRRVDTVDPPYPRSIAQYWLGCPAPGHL

Q: How did the Kd turn out when “recombinant human αvβ3 integrin (from UniProt P06756 31-1048; P05106 27-718) (complex)” was run?
A: 0.997 µM
